Results on one molecule are retold here after US20050181450A1, “Novel inositol 1,4,5-trisphosphate (IP3) receptor-binding protein and an IP3 indicator” (priority 2002, published 2005).

The experiment deals with T1, type II phosphatidylinositol phosphate kinase α (Homo sapiens, UniProt P48426).
T1 construct: expressed in transfected cells; host or cells: Cos-7
T1 sequence (P48426 1-406): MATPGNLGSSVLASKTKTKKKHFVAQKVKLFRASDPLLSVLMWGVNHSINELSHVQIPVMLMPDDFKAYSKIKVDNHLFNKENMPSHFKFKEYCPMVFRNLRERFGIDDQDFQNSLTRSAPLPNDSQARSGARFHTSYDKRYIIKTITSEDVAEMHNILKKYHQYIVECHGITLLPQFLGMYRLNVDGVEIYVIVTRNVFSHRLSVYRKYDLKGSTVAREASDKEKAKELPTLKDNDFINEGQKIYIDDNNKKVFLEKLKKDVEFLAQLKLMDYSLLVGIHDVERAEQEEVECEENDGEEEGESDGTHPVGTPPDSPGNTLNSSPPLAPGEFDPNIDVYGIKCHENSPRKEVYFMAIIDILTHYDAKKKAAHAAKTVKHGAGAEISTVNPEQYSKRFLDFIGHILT
Kind of experiment: Co-immunoprecipitation in Cos-7 cells with Myc-PIPKII α. Type of experiment: binding. To be noted: overexpressing Cos-7 cells. As to the method:
(A and B) IRBIT was transfected into Cos-7 cells with Myc-tagged type II phosphatidylinositol phosphate kinase α, β or γ (PIPKII α, β or γ). After two days, cells were lysed in lysis buffer, followed by centrifugation (100,000×g, 30 min). The supernatants were incubated with 3 μg of anti-IRBIT antibody, rabbit IgG, mouse anti-Myc antibody, or mouse IgG for 1 h at 4° C. After adding 5 μl of Protein G beads and another 1-h incubation, the beads were washed five times with lysis buffer and analyzed by Western blotting with anti-IRBIT antibody or HRP conjugated anti-Myc antibody. Immunoprecipitation of Myc-PIPKII α, β or γ with anti-Myc antibody co-precipitated IRBIT (A). In the reciprocal experiments, immunoprecipitation of IRBIT with anti-IRBIT antibody precipitated Myc-PIPKII α, β or γ.
IRBIT was transfected into Cos-7 cells with Myc-tagged type II phosphatidylinositol phosphate kinase α, β or γ (PIPKII α, β or γ). After two days, cells were lysed in lysis buffer, followed by centrifugation (100,000×g, 30 min). The supernatants were incubated with 3 μg of anti-IRBIT antibody, rabbit IgG, mouse anti-Myc antibody, or mouse IgG for 1 h at 4° C. After adding 5 μl of Protein G beads and another 1-h incubation, the beads were washed five times with lysis buffer and analyzed by Western blotting with anti-IRBIT antibody or HRP conjugated anti-Myc antibody.

B1: IRBIT: novel IP3 receptor-binding protein of 530 amino acids, SEQ ID NO: 1 (protein, listed as Mus musculus)
chain: MSMPDAMPLPGVGEELKQAKEIEDAEKYSFMATVTKAPKKQIQFADDMQEFTKFPTKTGRRSLSRSISQSSTDSYSSAASYTDSSDDEVSPREKQQTNSKGSSNFCVKNIKQAEFGRREIEIAEQDMSALISLRKRAQGEKPLAGAKIVGCTHITAQTAVLIETLCALGAQCRWSACNIYSTQNEVAAALAEAGVAVFAWKGESEDDFWWCIDRCVNMDGWQANMILDDGGDLTHWVYKKYPNVFKKIRGIVEESVTGVHRLYQLSKAGKLCVPAMNVNDSVTKQKFDNLYCCRESILDGLKRTTDVMFGGKQVVVCGYGEVGKGCCAALKALGAIVYITEIDPICALQACMDGFRVVKLNEVIRQVDVVITCTGNKNVVTREHLDRMKNSCIVCNMGHSNTEIDVTSLRTPELTWERVRSQVDHVIWPDGKRVVLLAEGRLLNLSCSTVPTFVLSITATTQALALIELYNAPEGRYKQDVYLLPKKMDEYVASLHLPSFDAHLTELTDDQAKYLGLNKNGPFKPNYYRY
With B1, the “interaction with PIPKII α” value is on record as “interacted”.
